Data taken from article PMC10673611 (Molecules, 2023).

B1: durvalumab-based anti-hPD-L1 IgG4 antibody C5 (antibody, V domains shown)
VH: EVQLVESGGGLVQPGGSLRLSCAASGFTFSRYWMSWVRQAPGKGLEWVALISRDGSETYYVDSVKGRFTISRDNAKNSLYLQMNSLRAEDTAVYYCAREGGWFGELAFDYWGQGTLVTVSS
VL: IVLTQSPGTLSLSPGERATLSCKASEDIGTWLAWYQQKPGQAPRLLIYDASSRATGIPDRFSGSGSGTDFTLTISRLEPEDFAVYYCQQYGSLPWTFGQGTKVEIK
notes: IgG4 heavy chain; IgG4; recombinant human anti-PD-L1 antibody, previously modeled, durvalumab-based; also called C5 antibody; full C5 antibody; source: produced by Recepton, purified (MabSelect Sure, SEC); copies: 2 + 2
B2: C5M1A, asymmetric knob-into-hole C5 IgG4 with one of the Fabs replaced by M1 (bispecific antibody, V domains shown)
VH: B1 VH
VL: B1 VL
notes: it replaces one Fab; human IgG4 constant region, hinge and Fc as in the heavy chain of m7, with knob-into-hole mutations; copies: 1 + 1 + 1
B3: C5M1B, C5 scFv with M1 attached to its C-terminus by a (GGGGS)4 linker (bispecific antibody, V domains shown)
VH: B1 VH
VL: B1 VL
notes: linker printed as (GGGGS)4

Each binder was assayed against T1, programmed death ligand 1 (PD-L1) (Homo sapiens, UniProt Q9NZQ7) (assay: ELISA; indirect ELISA; MaxiSorp plates coated with protein overnight at 4 °C, blocked with 1% BSA in PBS, ligands diluted in PBS 1 h at RT, detection with anti-IgG Fc or anti-His-Tag antibody and HRP-streptavidin, TMB; the paper does not say for each pair which partner was coated). Conditions: both partners purified.
T1 construct: human programmed death ligand 1; HEK293 transient, Ni Sepharose and SEC; also called hPD-L1
T1 sequence (Q9NZQ7 19-290): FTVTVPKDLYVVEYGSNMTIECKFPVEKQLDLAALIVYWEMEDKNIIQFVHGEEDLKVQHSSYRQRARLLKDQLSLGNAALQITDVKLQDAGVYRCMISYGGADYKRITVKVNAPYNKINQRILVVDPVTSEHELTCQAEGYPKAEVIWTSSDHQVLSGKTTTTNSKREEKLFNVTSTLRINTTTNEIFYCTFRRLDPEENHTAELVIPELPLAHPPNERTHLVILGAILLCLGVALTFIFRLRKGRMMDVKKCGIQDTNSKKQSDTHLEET

Binder	binding result
B1	binds
B2	binds
B3	binds
